Numbering of substitutions follows the chain as printed.
T1: Mcm4 (S. cerevisiae, UniProt P30665 1-933)
T1 construct: Mcm4, S. cerevisiae; the entire MCM4 ORF stands on pET11a-MCM4; also called minichromosome maintenance protein 4; source: purified (ammonium sulphate, SP Sepharose, heparin agarose, ssDNA Sepharose, Mono S)
T1 sequence (looked up): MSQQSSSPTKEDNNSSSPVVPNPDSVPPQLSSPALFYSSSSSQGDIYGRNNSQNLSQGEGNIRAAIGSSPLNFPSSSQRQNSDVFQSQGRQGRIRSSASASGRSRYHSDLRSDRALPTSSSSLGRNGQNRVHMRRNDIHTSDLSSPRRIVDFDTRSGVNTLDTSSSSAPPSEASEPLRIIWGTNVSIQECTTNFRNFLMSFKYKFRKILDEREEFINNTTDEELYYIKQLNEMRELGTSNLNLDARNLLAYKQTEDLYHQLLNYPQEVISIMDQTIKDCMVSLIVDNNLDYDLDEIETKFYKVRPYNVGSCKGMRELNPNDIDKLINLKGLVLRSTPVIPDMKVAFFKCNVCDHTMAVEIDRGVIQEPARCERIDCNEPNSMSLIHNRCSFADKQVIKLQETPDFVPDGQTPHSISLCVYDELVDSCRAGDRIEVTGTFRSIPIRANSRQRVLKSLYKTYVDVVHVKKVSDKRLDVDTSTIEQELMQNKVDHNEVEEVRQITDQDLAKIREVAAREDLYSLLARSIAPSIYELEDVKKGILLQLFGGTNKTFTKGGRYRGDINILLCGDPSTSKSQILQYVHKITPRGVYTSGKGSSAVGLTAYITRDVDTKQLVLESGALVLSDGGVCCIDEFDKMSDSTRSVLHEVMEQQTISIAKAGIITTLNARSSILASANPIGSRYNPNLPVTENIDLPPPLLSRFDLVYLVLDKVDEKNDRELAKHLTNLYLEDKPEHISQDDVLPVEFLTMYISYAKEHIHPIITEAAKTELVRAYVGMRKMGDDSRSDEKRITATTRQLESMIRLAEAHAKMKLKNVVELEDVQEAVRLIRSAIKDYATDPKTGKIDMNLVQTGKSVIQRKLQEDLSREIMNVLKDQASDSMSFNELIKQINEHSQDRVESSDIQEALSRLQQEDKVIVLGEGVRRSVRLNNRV

B1: Mcm4^R701A (natural protein, S. cerevisiae, UniProt P30665 1-933, looked up)
chain: T1 sequence (looked up) with R701A
notes: Mcm4, S. cerevisiae; entire MCM4 ORF with the SRF arginine R701 changed to alanine; Purification of the mutant is not described separately; also called 4^RA; Mcm4^RA; source: purified
B2: Mcm7 (natural protein, S. cerevisiae, UniProt P38132 1-845, looked up)
chain: MSAALPSIQLPVDYNNLFNEITDFLVTFKQDTLSSDATRNENEDENLDAENIEQHLLEKGPKYMAMLQKVANRELNSVIIDLDDILQYQNEKFLQGTQADDLVSAIQQNANHFTELFCRAIDNNMPLPTKEIDYKDDVLDVILNQRRLRNERMLSDRTNEIRSENLMDTTMDPPSSMNDALREVVEDETELFPPNLTRRYFLYFKPLSQNCARRYRKKAISSKPLSVRQIKGDFLGQLITVRGIITRVSDVKPAVEVIAYTCDQCGYEVFQEVNSRTFTPLSECTSEECSQNQTKGQLFMSTRASKFSAFQECKIQELSQQVPVGHIPRSLNIHVNGTLVRSLSPGDIVDVTGIFLPAPYTGFKALKAGLLTETYLEAQFVRQHKKKFASFSLTSDVEERVMELITSGDVYNRLAKSIAPEIYGNLDVKKALLLLLVGGVDKRVGDGMKIRGDINVCLMGDPGVAKSQLLKAICKISPRGVYTTGKGSSGVGLTAAVMKDPVTDEMILEGGALVLADNGICCIDEFDKMDESDRTAIHEVMEQQTISISKAGINTTLNARTSILAAANPLYGRYNPRLSPLDNINLPAALLSRFDILFLMLDIPSRDDDEKLAEHVTYVHMHNKQPDLDFTPVEPSKMREYIAYAKTKRPVMSEAVNDYVVQAYIRLRQDSKREMDSKFSFGQATPRTLLGIIRLSQALAKLRLADMVDIDDVEEALRLVRVSKESLYQETNKSKEDESPTTKIFTIIKKMLQETGKNTLSYENIVKTVRLRGFTMLQLSNCIQEYSYLNVWHLINEGNTLKFVDDGTMDTDQEDSLVSTPKLAPQTTASANVSAQDSDIDLQDA
notes: Mcm7, S. cerevisiae; also called minichromosome maintenance protein 7

Experiments:
Details in all cases: both partners purified
Mcm6 = target: T2, Mcm6 (S. cerevisiae, UniProt P53091 1-1017); assay: SEC; 5.2 nmol each subunit mixed, 5 mg/ml, 16°C 30 min; Superose 6 10/300 GL, 20 mM Tris-HCl pH 7.5, 0.1 mM EDTA, 2 mM DTT, 100 mM NaCl, 10% glycerol; no nucleotide
T2 construct: Mcm6, S. cerevisiae; also called minichromosome maintenance protein 6
T2 sequence (P53091 whole entry): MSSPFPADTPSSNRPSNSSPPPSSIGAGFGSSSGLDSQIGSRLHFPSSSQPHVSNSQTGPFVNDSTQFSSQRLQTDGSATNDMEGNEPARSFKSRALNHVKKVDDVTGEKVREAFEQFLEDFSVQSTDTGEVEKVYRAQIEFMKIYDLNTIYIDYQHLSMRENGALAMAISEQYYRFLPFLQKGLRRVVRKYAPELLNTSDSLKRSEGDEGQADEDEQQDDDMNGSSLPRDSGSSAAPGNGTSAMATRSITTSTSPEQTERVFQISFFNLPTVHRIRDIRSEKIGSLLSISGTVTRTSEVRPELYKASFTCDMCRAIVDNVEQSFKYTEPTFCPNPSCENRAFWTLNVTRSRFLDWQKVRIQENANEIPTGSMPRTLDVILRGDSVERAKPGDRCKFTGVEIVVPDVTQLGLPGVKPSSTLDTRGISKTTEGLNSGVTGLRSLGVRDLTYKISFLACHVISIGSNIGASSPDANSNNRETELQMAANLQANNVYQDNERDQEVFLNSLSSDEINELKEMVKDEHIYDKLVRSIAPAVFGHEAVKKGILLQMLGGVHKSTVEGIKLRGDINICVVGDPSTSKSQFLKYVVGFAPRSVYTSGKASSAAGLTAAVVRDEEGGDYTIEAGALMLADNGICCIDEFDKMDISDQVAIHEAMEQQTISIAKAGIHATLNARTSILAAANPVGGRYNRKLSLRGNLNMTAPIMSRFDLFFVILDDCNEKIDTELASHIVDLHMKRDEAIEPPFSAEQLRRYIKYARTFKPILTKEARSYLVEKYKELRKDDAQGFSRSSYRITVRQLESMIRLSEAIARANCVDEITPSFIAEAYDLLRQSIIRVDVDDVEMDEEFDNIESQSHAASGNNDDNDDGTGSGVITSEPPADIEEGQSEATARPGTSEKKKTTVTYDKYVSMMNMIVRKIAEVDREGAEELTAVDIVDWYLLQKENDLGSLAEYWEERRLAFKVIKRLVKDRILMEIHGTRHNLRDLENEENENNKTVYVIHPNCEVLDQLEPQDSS

Mcm4^R701A = target: B1; assay: as above
Mcm4 = target: T1, Mcm4; assay: cross-linking; glutaraldehyde, 9 ug Mcm4/6/7 in 20 mM HEPES NaOH pH 8.4, 10 mM magnesium acetate, no nucleotide; 16°C 30 min then 2 min 37°C; 3.5% SDS-phosphate gel

B1: binds (Mcm6).

B2: binds (Mcm4^R701A); binds (Mcm4).
